Among the data in the RNAGym collection of RNA variant scans (doi:10.7554/elife.80360) are self-cleavage values, retold here.

The labels stand for the following.
B1: Twister Ribozyme (parent)
chain: AACACUGCCAAUGCCGGUCCCAAGCCCGGAUAAAAGUGGAGGGGGCGG

This series covers variants of B1. Put plainly: self-cleavage, relative activity (ratio to wild type); higher = more cleavage; co-transcriptional.
On to A23C C27U, for which the self-cleavage amounted to 0.0937.

As to C26G C46U, the self-cleavage came to 0.361.

In the case of C3U U12A, the self-cleavage came to 0.41. C3U U12G: the self-cleavage is 0.391.

For the variant C20G G24U, the self-cleavage was 0.0899. As for A22C A30C, the self-cleavage is 1.07. Then G7C C25U, with 0.128; and G41U G47U, with 0.3; and U6A A30C, with 0.428. With A4G G36U, the self-cleavage worked out at 0.164. In the case of G28U G47A it was 0.374. Then G29U G48U, with 0.867; and C26A G38A, with 0.143; and C8A C9U, with 0.0937. C27U G36A: the self-cleavage is 0.583. For A1U U12A, the self-cleavage is 0.0685. Then C27G U31C, with 0.072. Then G24A A30U, with 0.0686. In the case of G16C G41A it was 0.143. Consider C19G A34G, for which the self-cleavage came out at 0.108.

As for U18A G44A, the self-cleavage was determined as 0.631. In the case of A10C A35U it was 1.04. With G24U A30G, the self-cleavage came to 0.111. In the case of A4C C19A it was 0.0783; in that of A11G A22C, 0.904; in that of C27G A32G, 0.0742.

On to C15G A34G, for which the self-cleavage was 0.103. Then C21U A30C, with 0.0806; and U6A C14U, with 0.795. In the case of C26G G47C it was 0.145; in that of U12G G24U, 0.167; in that of C5A C9U, 0.0659. Then G13C G29C, with 0.477. With G13C G29A, the self-cleavage is 0.411. Take C21U C46U: the self-cleavage came out at 0.0929. In the case of C21G G43C it was 0.0506. In the case of A2G G17A it was 0.113; in that of C9A G47C, 0.221.

G29U G42A: the self-cleavage is 0.224. In the case of G7C G29U it was 0.0704. Then A10U G43A, with 0.373. Then A10U G43C, with 0.2.

Regarding G13A G29A, the self-cleavage was found to be 0.653. Consider A11C A23G, for which the self-cleavage was found to be 0.249. Then C3A C14G, with 0.0567; and C15A G44A, with 0.79; and A30G G48U, with 0.96. Then C25U G44C, with 0.692; and C3A C46U, with 0.244.

Consider A1G A23G, for which the self-cleavage was determined as 0.213. For C3G A40U, the self-cleavage was determined as 0.113. Then A30G A32C, with 0.877; and C14U G45C, with 0.713; and A10G G38U, with 0.91. A11U A32U: the self-cleavage stood at 1.1. For the variant A33U U37C, the self-cleavage came out at 0.379.

Turning to G38A G44U, the self-cleavage stood at 0.846. In the case of U12G A23U it was 0.566; in that of U12G A23C, 0.401; in that of G13C G39U, 0.108. In the case of A33U G42C it was 0.323; in that of A33U G42A, 0.283. Then A4G G13A, with 0.563; and C3U C21G, with 0.221. Take G7A: the self-cleavage turned out to be 0.615. Then C9G A33U, with 0.689; and C3U C20U, with 0.308; and A33U G41U, with 0.489. In the case of U37A C46U it was 0.886; in that of G29A G45C, 0.249; in that of A23C A34U, 0.0811. In the case of A30U G42A it was 0.464; in that of G17A C19U, 0.281; in that of G17A C19A, 0.104. For C21G U37C, the self-cleavage stood at 0.0765. In the case of G13U G29C it was 0.555; in that of A4U C27A, 0.0441; in that of C20A G29U, 0.103. In the case of A30C G36C it was 0.0822; in that of C21U G48C, 0.133; in that of G13A G42U, 0.191. In the case of G38U C46U it was 0.864; in that of G29C U37C, 0.182. Turning to A11G G44C, the self-cleavage worked out at 0.784. In the case of C19A G44A it was 0.685; in that of C20U C25U, 0.545. In the case of A2G A11C it was 0.206; in that of C19U A35U, 0.972. As for A2C A33U, the self-cleavage was found to be 0.0693.

Turning to C14G C27G, the self-cleavage is 0.0942.

Turning to C8A C46U, the self-cleavage came to 0.46. C15U A23G: the self-cleavage was determined as 0.297. Then C3A A35C, with 0.315; and U6G A33C, with 0.367; and A2U C19U, with 0.163.

With A22G U37C, the self-cleavage amounted to 0.129. Then A1G C14A, with 0.467; and C20G G42U, with 0.386; and G36C G48U, with 0.455.

Turning to U31A A33U, the self-cleavage worked out at 0.935. On to U31A A33G, for which the self-cleavage came out at 0.82. In the case of A4U A10C it was 0.156. Then G13A U31G, with 1.01; and G13A U31C, with 0.962; and C20U C27U, with 0.708. Then G39A A40C, with 0.139.

For the variant A23C G24A, the self-cleavage amounted to 0.107.

On to A22C U31A, for which the self-cleavage was 0.54.

As for A1G A30G, the self-cleavage worked out at 0.376.

Turning to A22C A35C, the self-cleavage amounted to 1.01. Then C19G G45A, with 0.321; and G13U G45U, with 0.212. In the case of G17A C46G it was 0.592; in that of A22U C46G, 0.816. In the case of A11G G45C it was 0.343; in that of C8G G45C, 0.118. Regarding A11U G17A, the self-cleavage stood at 0.497. In the case of A35G G45U it was 0.659; in that of A22U C25A, 0.0894. As to A1C G7U, the self-cleavage worked out at 0.149.

On to G16U C19U, for which the self-cleavage stood at 0.697. Then A33G G42C, with 0.268; and C8A G17A, with 0.12. In the case of A23C G48A it was 0.14; in that of G17C G39U, 0.0818. In the case of U12G G13A it was 1.14. As for C19A U37C, the self-cleavage was 0.0949.

For the variant U12A A32C, the self-cleavage was 1.15. Then C19A C26U, with 0.0877; and A10U G24C, with 0.0965; and A10U G24A, with 0.0831. In the case of A11C C21U it was 0.1; in that of C26A U37C, 0.105. Then C21A G24C, with 0.0911; and U12A U31C, with 1.13. For the variant U12A U31A, the self-cleavage came to 0.679. Then U18A U31G, with 0.644; and U18A U31C, with 0.568. Then A23G C25A, with 0.0465; and U6C A34G, with 0.788; and U6C A34C, with 0.18. In the case of C19U G41U it was 0.125; in that of G17A G39A, 0.153; in that of C9U G44C, 0.677. Consider G24A A40G, for which the self-cleavage was found to be 0.0838. G42A G47A: the self-cleavage came out at 0.282. Then C3A G48C, with 0.251. Then A1C G42C, with 0.239; and A22G A34C, with 0.0775. Take A34U G39C: the self-cleavage was 0.138. Then G13C G43A, with 0.0854; and G29U G36C, with 0.319; and A1C A23G, with 0.145. In the case of G38C C46U it was 0.855; in that of U12C U31A, 0.78; in that of A11C G43U, 0.252. Then A33U G38C, with 0.77; and C5G A35G, with 0.696.

As for G17A G45A, the self-cleavage was 0.386.

A2G C46A: the self-cleavage amounted to 0.2. In the case of G7A C20G it was 0.0749; in that of U12G G39A, 0.477. Then U6C C27U, with 0.275; and C8A A34G, with 0.701; and C8G A30C, with 0.122.

Turning to A22C A34G, the self-cleavage is 0.912. Then A1G A22C, with 0.325.
